Source: the DeepSol protein solubility set

Assay: soluble on expression in E. coli; label from the status in PepcDB or PDB records

Sequence: MDQNVPISKKLWNIVRFLLYMIRKGVSKNKLIADFNATLKRGKNLMFHQRRRVHAGSTASAALNATSATASSRQEYEFSCSNTPNYSFPFSNMAFMRKKSHNNLFTCGQTPQTLDDDVAAARAVLELLNGVGEKGNVTPADLTVALSPYFPGFGQTPLVRPLRVTDSPFPLTPENGDVANGHVDKAADDFIKKFYKNLNQQKKMIEFS
- soluble on expression in E. coli: not soluble

Sequence: MTNNPLIPQSKLPQLGTTIFTQMSALAQQHQAINLSQGFPDFDGPRYLQERLAHHVAQGANQYAPMTGVQALREAIAQKTERLYGYQPDADSDITVTAGATEALYAAITALVRNGDEVICFDPSYDSYAPAIALSGGIVKRMALQPPHFRVDWQEFAALLSERTRLVILNTPHNPSATVWQQADFAALWQAIAGHEIFVISDEVYEHINFSQQGHASVLAHPQLRERAVAVSSFGKTYHMTGWKVGYCVAPAPISAEIRKVHQYLTFSVNTPAQLALADMLRAEPEHYLALPDFYRQKRDILVNALNESRLEILPCEGTYFLLVDYSAVSTLDDVEFCQWLTQEHGVAAIPLSVFCADPFPHKLIRLCFAKKESTLLAAAERLRQL
- soluble on expression in E. coli: soluble

Sequence: MAGQSKIIVGGVIGGTSEQEPKGFLDLPVELYQKIIGKLDLHERFRVRKSNQTLRQFIDQMDPAISQIRVSISDSDKCDDWVSRSVRVMAEMLSSSIYPDVKNISTCGLPSSQIAQILPSFQAGKLENLDLYYCGKPTAEDMETIVNSDQWKNAKNISGFRGLSNIRIKDLLHFSLVCVDYATISVETAIEIKDILLTSSNIKHAYFTSKSVLDVNVIRVFDPKAAKVHRKRNLSNLVRNTDFADFTFSSNQKVLRFKKKN
- soluble on expression in E. coli: not soluble

Sequence: MGSDKIHHHHHHMSFDAMNTTLSLNTSAGSQALTVRDPWALVPSLGDLNAYIAAVNRLPMLTLEEEQSLGQRLRDEHDLEAAGRLVLSHLRLVVSVSRQYLGYGLPHGDLIQEGNVGLMKAVKRFDPSQGVRLVSYALHWIKAEIHEYVLRNWRMVKLATTKAQRKLFFNLRSMKQGFKGDATDSDLHRSTLTDAEIDIVASELKVKREEVIEMETRLSGGDVALDPQTDDGDESYAPIAYLADDRHEPTRVLDAQRRDALAGDGIGEALDVLDARSRRIVEERWLKVNDNGSGGMTLHELAAEYGVSAERIRQIEVAAMKKMRKALAAYA
- soluble on expression in E. coli: not soluble

Sequence: MGHHHHHHSHMANSAGSMANSAGSMHLVVESFPSYRDVTLFEGKRVSFYKRAQILVADTWSVLEGKGDGCFKDISSITMFADYRLPQVLAHLGALKYSDDLLKKLLKGEMLSYGDRQEVEIRGCSLWCVELIRDCLLELIEQKGEKPNGEINSILLDYYLWDYAHDHREDMKGIPFHRIRCIYY
- soluble on expression in E. coli: not soluble

Sequence: MAHHHHHHMWQTVVRRYRLQPTSLAAFLESNCMVAKPPTAALHSDSNLVVAETNSLSIFENLAAEESLIRGLSLDTKQRLLLFYVNRPCVVVGRNQNIFQEVSLRRAAADGVCVARRASGGGAVFHDEGNLCFSFITHRTRYAPEKTIQLVRLGLCASYAIDPARLTTTGRHDLFLDGRKITGSAMRVQRDIAYHHCTLLVDTPHASVGRYLRPEGDYVAFKTSSVGSVRSPVTSLAESGCIADGPGAVAALKGNMADFFLAEGDRVLNAATPWELDAVELRQRFTTARHRCANAPLFALDVVGAVAADMPFIEREGRQPARGDAATLGEAVHKAASKEWAYAMPTFTSTVFLSDSELRRRLKTLSVRQHVALLCSLAEEELLAVLQRCVLEGSEGPEAVAGTEAGLHLVTTVEHRLVTSVVVRRVAPTTATASAVAPSSASSGGWVQRYLSALLVGHPCDAAIEGLECVGDTTAVVQGLVHEAGSLCPDLPDAVGDAALLMVARVLLDVWRDKNVFDIAT
- soluble on expression in E. coli: not soluble

Sequence: MGSDKIHHHHHHMIKEIRQRIENFESDYVFTYQDLNLSPERSERVIKILNRLVAEGIIAKISKGRFYKPKKSVFGMLKPKLEEVVKDFLEKDGEVIGYMTGYLAFNRLGLTTQVPNIIQIGTNVRKNKTVRGMFTISFVIQSNPITKENIPLLQLLDAIKFIKEIPDTTTSQSCKCIMTIIQNLNKKDRDELLILAKKYPPMVRALLGAMVENIYGTNKALPLWNTLNPLTLYNVKIDKQVLPEVRKWRIQ
- soluble on expression in E. coli: not soluble

Sequence: MATYNGQGFIHDQLDSIRNQTLRPDYVLMRDDGSTDDTVKVVEDYIKEHRLDGWSITSNDKNLGWRLNFRQLLIDVLAYEVDYVFFSDQDDTWYHHKNKMQVDIMEERQDINLLSADIDIKKLSEEATIPNNFKFNGEETISKYPLDFSYHNYRQGWTFCLRKSFVDQVMTFYSDNLILSHDNLFAGVSGVIGSGYNLNRSVGEHKRHAENASGNILNMSSSYERHLQELYFVLSYYIILVPFLEKSSSSQLREAKAYLDFNQQRYKNAQNKDFVAILKQMMTKKRFYDSFSNRIRDLVFLLKDIKRSLEHHHHHH
- soluble on expression in E. coli: soluble
